Test results taken from paper PMC5148762.

Molecular target: protein G B1
Test: quartz crystal microbalance with dissipation monitoring (QCM-D); protein G B1 adsorbed from 5 ug/ml in PBS onto polystyrene-coated gold quartz sensors, rinsed, then IgG flowed at 5 ug/ml in PBS, 150 ul/min, pH 7.4, 22 °C; mass by the Sauerbrey equation

Sauerbrey mass bound: 350 ng/cm^2
Substance: IgG antibody
